Measurements taken from patent US20190359674A1.
Positions of bridges follow the written chain, without caps; N, C: chain ends. Non-standard residues stand in square brackets, D forms with d. Dap = NC[C@H](N)C(=O)O

Biological target: T1, recombinant human MAS1 receptor (human), P04201
T1 chain: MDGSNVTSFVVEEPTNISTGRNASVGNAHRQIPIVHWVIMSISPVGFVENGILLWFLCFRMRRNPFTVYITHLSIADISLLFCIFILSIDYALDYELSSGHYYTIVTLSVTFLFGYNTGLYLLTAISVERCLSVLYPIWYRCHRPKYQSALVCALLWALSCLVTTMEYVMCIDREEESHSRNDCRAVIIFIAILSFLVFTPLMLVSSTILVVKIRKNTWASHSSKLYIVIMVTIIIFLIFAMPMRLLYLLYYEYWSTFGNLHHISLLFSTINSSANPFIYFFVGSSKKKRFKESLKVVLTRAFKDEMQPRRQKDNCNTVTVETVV
Test: cell-based or functional assay

B1: cyclotide MCo-AT1-7 (designed binder)
chain: GGVCPKILQRCRRDSDCPGACICRGNGYCGSG[Dap]RVYIHE-OH
modifications: disulfide 11-23, 17-29, 4-21; lactam N-39 (inferred); also: Gly32 joined to Dap33 β-amino group by isopeptide bond, Dap33 α-amino group free
activity in the MAS1 activation (NO release) assay relative to peptide AT1-7, at 10 nM (% of AT1-7 activity): 90
